One molecule from patent US12162911B2, “Pulmonary administration of pyocins for treating bacterial respiratory infections” (priority 2014, dated 2024) can be followed below.

The subject of one data set is P8AP41T. Kind of data set: Pyocin sensitivity in vitro (spot tests) of strain P8AP41T. Format: cell-based, Pseudomonas aeruginosa. To be noted: spot tests, FIG. 3a. The protocol:
Pyocin sensitivity assays: overlay spot plate method. Soft agar overlay spot plates were performed using the method of ^35. 150 μl of test strain culture at OD600 nm=0.6 was added to 6 ml of 0.8% soft agar and poured over an LB agar plate. 5 μl of bacteriocin, lung homogenate or blood at varying concentrations was spotted onto the plates and incubated for 24 h at 37° C.
In order to determine if pyocin tolerance or resistance was acquired upon pyocin treatment in vivo, viable bacteria recovered from mice that survived infection to the 24 h end-point, in all experiments discussed in this work, were tested for pyocin susceptibility. From these experiments no pyocin resistant colonies were isolated. […] Importantly, sensitivity to pyocins S5 and L1 were unaffected in vitro in this pyocin AP41-tolerant strain (FIG. 3a) and this was also shown to be the case in vivo when mice were infected with P8AP41T.

The nature of data set [1]: Pyocin S5-specific antibody titers by indirect ELISA. The procedure:
Determination of pyocin S5-specific antibody titers by indirect ELISA. For analysis of IgG and IgA responses, blood was obtained by cardiac puncture immediately after carbon dioxide asphyxiation. Serum was obtained by centrifugation of samples at 13,500 g for 10 min followed by collection of the supernatant. Serum was stored at −80° C. Greiner 96-well plates (MaxiSorp) were coated with purified recombinant pyocin S5 (7.5 μg ml^−1, 50 μl/well) protein in PBS overnight at 4° C. The plates were washed three times with phosphate buffered saline+0.05% TWEEN20 (PBST) and then blocked for 1 h at 37° C. with 150 μl of blocking buffer (1% bovine serum albumin (BSA) in PBS). After washing, five-fold serially diluted samples were added, starting at a dilution of 1/50 in blocking buffer, and incubated for 2 h at 37° C. Serum from mice given pyocin S5+Freunds complete/incomplete subcutaneously three times over four weeks was used as a positive control and uncoated wells were used as negative controls. Serum from individual mice were analysed and replicate samples were carried out on separate days. After washing with PBST, 50 μl of anti-mouse IgG (Fc specific)-peroxidase antibody ((1/1000 dilution) Sigma, UK) or anti-mouse IgA (α-chain specific)-peroxidase antibody ((1/250 dilution) Sigma, UK) in PBST/0.1% BSA was added and plates were incubated for 1 h at 37° C. Plates were developed using […] OPD (o-Phenylenediamine dihydrochloride) tablets (Sigma, UK) and reactions were stopped using 3 M HCl. Optical densities (ODs) were read at 450 nm using a FLUOstar OPTIMA plate reader (BMG labtech, Germany).
(In general: ELISA stands for enzyme-linked immunosorbent assay.)

Where [2] appears, read: mice repeatedly exposed I.N., 75 μg/dose three times (FIG. 8b).
Where [3] appears, read: mice repeatedly exposed I.P., 75 μg/dose three times (FIG. 8d).

B1: Pyocin S5: S-type pyocin, SEQ ID NO: 13; binds FptA, pore-forming effector (protein, listed as Pseudomonas aeruginosa)
chain: MSNDNEVPGSMVIVAQGPDDQYAYEVPPIDSAAVAGNMFGDLIQREIYLQKNIYYPVRSIFEQGTKEKKEINKKVSDQVDGLLKQITQGKREATRQERVDVMSAVLHKMESDLEGYKKTFTKGPFIDYEKQSSLSIYEAWVKIWEKNSWEERKKYPFQQLVRDELERAVAYYKQDSLSEAVKVLRQELNKQKALKEKEDLSQLERDYRTRKANLEMKVQSELDQAGSALPPLVSPTPEQWLERATRLVTQAIADKKQLQTTNNTLIKNSPTPLEKQKAIYNGELLVDEIASLQARLVKLNAETTRRRTEAERKAAEEQALQDAIKFTADFYKEVTEKFGARTSEMARQLAEGARGKNIRSSAEAIKSFEKHKDALNKKLSLKDRQAIAKAFDSLDKQMMAKSLEKFSKGFGVVGKAIDAASLYQEFKISTETGDWKPFFVKIETLAAGAAASWLVGIAFATATATPIGILGFALVMAVTGAMIDEDLLEKANNLVISI
Consider B1, for which, in the data set on P8AP41T, the “sensitivity of the pyocin AP41-tolerant strain in vitro” value was “unaffected”. For the same molecule, in data set [1] (setting [2]), the “pyocin-S5 specific IgA in serum” value was “no IgA antibodies detected” and the “pyocin-S5 specific IgG, fold less than the Freunds complete/incomplete control group” value is listed as 10 fold. Moreover, in data set [1] (setting [3]), the “pyocin S5-specific IgA in serum” value is listed as “no pyocin S5-specific IgA was detected” and the “pyocin S5-specific IgG, fold less than the Freunds complete/incomplete control group” value was found to be 1000 fold.
